Laboratory results as given in publication PMC10813790, “Lymphocyte-Specific Protein 1 Regulates Expression and Stability of Endothelial Nitric Oxide Synthase” (Biomolecules, 2024).

Target: the molecule itself
Experiment: low-temperature SDS-PAGE; aorta lysates of WT and LSP1-KO mice in NP40-based non-denaturing buffer (crude or after eNOS immunoprecipitation), not boiled, no reducing agent, 7% gel at 4 °C; anti-eNOS immunoblot; dimer to monomers

B1: endothelial nitric oxide synthase (eNOS), mouse, native (enzyme, mouse (endogenous in aorta), UniProt P70313 1-1202, looked up)
chain: MGNLKSVGQEPGPPCGLGLGLGLGLCGKQGPASPAPEPSQAPAPPSPTRPAPDHSPPLTRPPDGPRFPRVKNWEVGSITYDTLSAQAQQDGPCTSRRCLGSLVFPRKLQSRPTQGPSPTEQLLGQARDFINQYYNSIKRSGSQAHEQRLQEVEAEVAATGTYQLRESELVFGAKQAWRNAPRCVGRIQWGKLQVFDARDCRTAQEMFTYICNHIKYATNRGNLRSAITVFPQRCPGRGDFRIWNSQLIRYAGYRQQDGSVRGDPANVEITELCIQHGWTPGNGRFDVLPLLLQAPDEPPELFTLPPEMVLEVPLEHPTLEWFAALGLRWYALPAVSNMLLEIGGLEFPAAPFSGWYMSSEIGMRDLCDPHRYNILEDVAVCMDLDTRTTSSLWKDKAAVEINVAVLHSYQLAKVTIVDHHAATASFMKHLENEQKARGGCPADWAWIVPPISGSLTPVFHQEMVNYFLSPAFRYQPDPWKGSAAKGAGITRKKTFKEVANAVKISASLMGTVMAKRVKATILYGSETGRAQSYAQQLGRLFRKAFDPRVLCMDEYDVVSLEHEALVLVVTSTFGNGDPPENGESFAAALMEMSGPYNSSPRPEQHKSYKIRFNSVSCSDPLVSSWRRKRKESSNTDSAGALGTLRFCVFGLGSRAYPHFCAFARAVDTRLEELGGERLLQLGQGDELCGQEEAFRGWAQAAFQAACETFCVGEDAKAAARDIFSPKRSWKRQRYRLSTQAESLQLLPGLTHVHRRKMFQATILSVENLQSSKSTRATILVRLDTGGQEGLQYQPGDHIGVCPPNRPGLVEALLSRVEDPPPSTEPVAVEQLEKGSPGGPPPGWVRDPRLPPCTLRQALTYFLDITSPPSPRLLRLLSTLAEESSEQQELEALSQDPRRYEEWKWFSCPTLLEVLEQFPSVALPAPLILTQLPLLQPRYYSVSSAPSAHPGEIHLTIAVLAYRTQDGLGPLHYGVCSTWMSQLKAGDPVPCFIRGAPSFRLPPDPNLPCILVGPGTGIAPFRGFWQDRLHDIEIKGLQPAPMTLVFGCRCSQLDHLYRDEVLDAQQRGVFGQVLTAFSRDPGSPKTYVQDLLRTELAAEVHRVLCLEQGHMFVCGDVTMATSVLQTVQRILATEGGMELDEAGDVIGVLRDQQRYHEDIFGLTLRTQEVTSRIRTQSFSLQERQLRGAVPWSFDPPGPEIPGS
notes: mouse endothelial nitric oxide synthase, native protein of the aorta; dimer band at 260 kDa; Written as the protomer, for the row of the protein with itself; also called mouse eNOS; WT eNOS; source: endogenous, aorta lysate of 129/SvJ wild-type mice (also LSP1-KO mice)
With B1 the “stoichiometry N” value was 2.
